Results: patent US20230176070A1

T1: PDZ domain of mitochondrial outer membrane protein 25 (mammalian (so in the source)) (UniProt P57105)
T1 sequence (looked up): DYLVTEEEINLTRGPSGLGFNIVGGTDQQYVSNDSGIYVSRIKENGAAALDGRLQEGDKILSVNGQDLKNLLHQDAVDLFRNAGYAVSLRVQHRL


Tests used:
[1] = biological target: T1, PDZ domain of mitochondrial outer membrane protein 25 (mammalian (so in the source)); assay: indirect ELISA, wild type PDZ coated
[2] = biological target: GST fusion PDZ mutant protein (R46E:K48D) (mammalian (so in the source)) (UniProt P57105); assay: indirect ELISA, PDZ R46E:K48D coated
[3] = biological target: GST fusion PDZ mutant protein (R46E:K48D) (mammalian (so in the source)) (UniProt P57105); assay: ELISA, wild type PDZ against PDZ R46E:K48D

Binder	WT ELISA affinity (LogIC50 (oD450nm)) [1]	Mutant ELISA affinity (LogIC50 (oD450nm)) [2]	Affinity fold change [3] [fold]
P5 (VHH) VHH: DVQLVESGGGLVQAGDSLRLSCAASGITFRWYTMAWFRQAPGKERDFVATINWSGSDTNYADSVKGRFTISRDNAKNTVTLQMNSLQPEDTAVYYCAGVPGTSLSGETDPRDYDYWGQGTQVTVSE	4.7	0	50600
P6 (VHH) VHH: HVQLVESGGGLVQAGGSLRLSCAASGRTFSRYTMGWFHQAPGKEREFVAEISGTGGNTGYADSVKGRFTMSRDNAKNTVYLQMNSLKPEDTGVYYCAAVIGSPTDSSDYRSSLDYDYWGQGTQVTVSE	5.25	4.73	3.32
P15 (VHH) VHH: QVQLVESGGGLVQAGGSLRLSCVASGRPFSSLDMGWFRQRPGKERDVVATINWTGDSTYYLDSVKGRFTISRDNAKNTVFLQMNSLKPEDTAVYYCAARGGGSSVDSEYDVGEFEYDYWGQGTQVTVSS	4.97	1.66	2060
P13 (VHH) VHH: QVQLVESGGGLVQAGGSLRLSCAASGRTFSTYTMGWFRQAPGKEREFVAAVTWSETLYSDSVKGRFTISRDNAKNTVYLQMNSLKPEDTAVYYCAAVQGSPVDTIVVLTTSEEYDYWGQGTQVTVSS	4.45	0.0071	28000
P9 (VHH) VHH: DVQLVESGGGLVQAGGSLRLSCVASVASGRTFGWYDMGWFRQAPGKEREFVAAISWSGGSTYYADSVKGRSTISRDNAKNTVYLQMNSLKPEDTAVYYCAARGGGTSVDSDYDVGEFEYDYWGQGTQVTVSE	4.88	2.61	185
P11 (VHH) VHH: DVQLVESGGGLVQAGGSLRLSCVASGRTFSTYTMGWFRQAPGKEREFVAHIGWSGSSTYYADSVKGRFTISRDNAKNTMYLQMNSLKPEDTAVYYCAVAIGSPVDSYRHSDPLEYDYWGQGTQVTVSE	4.07	0	11700
P14 (VHH) VHH: QVQLVESGGGLVQAGDSLRLSCTASGRTFSTYTMAWFRQAPGKEREFVAAISWSGTYYADSVKGRFTISRDNAKNTVYLQMNSLKPEDTAVYYCAAVIGSTVDTYSPSDPLEYDYWGQGTQVTVSS	5.15	3.74	25.7
